Test results reported in patent US6699677B1, “Tethered ligands and methods of use” (ChemoCentryx, Inc., priority 1999, dated 2004).

T1: CCR10 (Homo sapiens, UniProt Q9NPB9)
T1 construct: Full length CCR10 expression constructs were made in pIRESpuro expression vector; expressed in transfected cells; HEK293-CCR10)
T1 sequence (Q9NPB9 1-350): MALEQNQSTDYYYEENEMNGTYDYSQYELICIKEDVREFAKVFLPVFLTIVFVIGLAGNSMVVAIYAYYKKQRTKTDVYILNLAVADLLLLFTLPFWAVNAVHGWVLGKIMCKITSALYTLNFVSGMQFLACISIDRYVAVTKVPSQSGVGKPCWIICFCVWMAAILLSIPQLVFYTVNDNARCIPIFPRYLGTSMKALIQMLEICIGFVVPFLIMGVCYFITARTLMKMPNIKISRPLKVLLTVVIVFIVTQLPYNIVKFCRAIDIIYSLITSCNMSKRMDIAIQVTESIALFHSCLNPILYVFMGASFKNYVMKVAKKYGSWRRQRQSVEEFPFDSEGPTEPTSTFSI

T2: CCR4 (Homo sapiens, UniProt P51679)
T2 sequence (P51679 1-360): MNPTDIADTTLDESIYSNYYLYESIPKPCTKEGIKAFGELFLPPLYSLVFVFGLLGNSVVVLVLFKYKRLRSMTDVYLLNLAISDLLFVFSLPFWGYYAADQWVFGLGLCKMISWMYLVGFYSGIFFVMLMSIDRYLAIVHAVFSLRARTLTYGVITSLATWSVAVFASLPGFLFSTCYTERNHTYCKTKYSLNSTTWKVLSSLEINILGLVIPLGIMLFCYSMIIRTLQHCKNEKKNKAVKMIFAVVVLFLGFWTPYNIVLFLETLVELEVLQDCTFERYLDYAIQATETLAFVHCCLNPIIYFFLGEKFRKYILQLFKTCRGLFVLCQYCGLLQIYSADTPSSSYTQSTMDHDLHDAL

B1: ELC-SK: tethered ligand fusion protein: ELC chemokine domain, human fractalkine mucin stalk, myc/poly-histidine immobilization domain (protein)
chain: GTNDAEDCCLSVTQKPIPGYIVRNFHYLLIKDGCRVPAVVFTTLRGRQLCAPPDQPWVERIIQRLQRTSAKMKRRSSEFGGTFEKQIGEVKPRTTPAAGGMDESVVLEPEATGESSSLEPTPSSQEAQRALGTSPELPTGVTGSSGTRLPPTPKAQDGGPVGTELFRVPPVSTAATWQSSAPHQPGPSLWAEAKTSEAPSTQDPSTQASTASSPAPEENAPSEGQRVWGQGQSPRPENSLEREEMGPVPAHTDAFQDWGPGSMAHVSVVPVSSEGTPSREPVASGSWTPKAEEPIHATMDPQRLGVLITPVPDAQA
modifications: left off: small tags and cut ends
B2: TARC-FRAC: a stalkokine with a fractalkine stalk and an TARC ligand domain (protein)
chain: ARGTNVGRECCLEYFKGAIPLRKLKTWYQTSEDCSRDAIVFVTVQGRAICSDPNNKRVKNAVKYLQSLERSEFGGTFEKQIGEVKPRTTPAAGGMDESVVLEPEATGESSSLEPTPSSQEAQRALGTSPELPTGVTGSSGTRLPPTPKAQDGGPVGTELFRVPPVSTAATWQSSAPHQPGPSLWAEAKTSEAPSTQDPSTQASTASSPAPEENAPSEGQRVWGQGQSPRPENSLEREEMGPVPAHTDAFQDWGPGSMAHVSVVPVSSEGTPSREPVASGSWTPKAEEPIHATMDPQRLGVLITPVPDAQA
modifications: left off: small tags and cut ends
notes: a stalkokine with a fractalkine stalk and an TARC ligand domain
B3: FK: fractalkine, natural membrane protein with a chemokine domain tethered on a long mucin-like stalk (protein)
chain: QHHGVTKCNITCSKMTSKIPVALLIHYQQNQASCGKRAIILETRQHRLFCADPKEQWVKDAMQHLDRQAAALTRNGGTFEKQIGEVKPRTTPAAGGMDESVVLEPEATGESSSLEPTPSSQEAQRALGTSPELPTGVTGSSGTRLPPTPKAQDGGPVGTELFRVPPVSTAATWQSSAPHQPGPSLWAEAKTSEAPSTQDPSTQASTASSPAPEENAPSEGQRVWGQGQSPRPENSLEREEMGPVPAHTDAFQDWGPGSMAHVSVVPVSSEGTPSREPVASGSWTPKAEEPIHATMDPQRLGVLITPVPDAQA
B4: MDC: recombinant human chemokine, natural ligand for CCR4 (protein)
chain: GPYGANMEDSVCCRDYVRYRLPLRVVKHFYWTSDSCPRPGVVLLTFRDKEICADPRVPWVKMILNKLSQ
B5: vMIPII: viral chemokine (protein)
chain: GDTLGASWHRPDKCCLGYQKRPLPQVLLSSWYPTSQLCSKPGVIFLTKRGRQVCADKSKDWVKKLMQQLPVTAR
B6: MDC-FRAC: a stalkokine with a fractalkine stalk and an MDC ligand domain (protein)
chain: GPYGANMEDSVCCRDYVRYRLPLRVVKHFYWTSDSCPRPGVVLLTFRDKEICADPRVPWVKMILNKLSQEFGGTFEKQIGEVKPRTTPAAGGMDESVVLEPEATGESSSLEPTPSSQEAQRALGTSPELPTGVTGSSGTRLPPTPKAQDGGPVGTELFRVPPVSTAATWQSSAPHQPGPSLWAEAKTSEAPSTQDPSTQASTASSPAPEENAPSEGQRVWGQGQSPRPENSLEREEMGPVPAHTDAFQDWGPGSMAHVSVVPVSSEGTPSREPVASGSWTPKAEEPIHATMDPQRLGVLITPVPDAQA
modifications: left off: small tags and cut ends
notes: a stalkokine with a fractalkine stalk and an MDC ligand domain

What was measured:
CCR10 [1] = target: T1, CCR10; assay: Adhesion of HEK293-CCR10 cells to immobilized stalkokines, with or without soluble chemokine competitors; type: binding; settings: stalkokine immobilized via anti-His anchoring antibody, 500,000 cells, 1.5 hrs at RT
Method: To determine ligand binding to CCR10, HEK293-CCR10 cells were used to interrogate chemokine “stalkokines” (SK), i.e., molecules in which discrete chemokine domains were engineered to be tethered to the end of an extended stalk structure. Stalkokines were interrogated using 8-well chamber slides coated first with anti-His anchoring antibody (10 ug/ml in PBS overnight at RT), which were washed and ‘blocked’ (2% FBS/0.5% BSA in PBS); treated with 250 ul of HEK293 cell stalkokine supernatants (1 hr at 37C), and incubated with 500,000 HEK293-CCR10 transfectants (1.5 hrs at RT). Inhibition of adhesion by competition with soluble chemokines was done by incubating cells with 5-10 ug/ml of recombinant chemokines. In all cases, nonadherent cells were removed by washing in PBS; remaining adherent cells were fixed with 1% glutaraldehyde, photoimaged and counted. As a primary screen, this adhesion would reveal putative receptor-ligand interactions.

CCR4 [2] = target: T2, CCR4; assay: Calcium mobilization in INDO-1AM loaded CEM cells expressing CCR4; type: cell-based; set-up: endogenous in cells; host or cells: CEM cells; settings: fusion protein supernatant added at 80 sec
Method: Briefly, CEM cells that express CCR4 were placed in a fluorimeter and monitored over time for changes in fluorescence. […] TARC-Fractalkine or MDC-Fractalkine (fusion protein supernatants), or control supernatants, were added at the following times: experiment 1, control supernatant added at 50 sec, TARK-FRAC at 80 sec; experiment 2, control supernatant at 50 sec and MDC-FRAC at 80 sec.

CCR4 [3] = target: T2, CCR4; assay: Binding of CCR4-NSO cells to immobilized stalkokines and competition by soluble chemokine; set-up: host or cells: mouse myeloma NSO
Method: Following, the liquid in each well was aspirated and washed once for approximately 5 minutes with 500 ul of PBS. The wells were then “blocked” (blocked for any additional protein binding sites) with the addition of 250 ul of blocking solution (2% fetal bovine serum, 0.5% BSA in PBS) and incubation for 1 hour at room temp (e.g., 20° C.). […] Each slide contained two wells with control supernatant (from mock-transfected cells) and two wells with the positive control SDF1a (which binds the ubiquitous chemokine receptor CXCR4). The four other wells were for experimental samples. The supernatants were incubated for one hour at room temperature (typically 20° C.), then incubated for an additional hour at 37° C. The supernatants were aspirated off, and each well was washed once for 5 minutes with 500 ul of PBS. The slide was then ready for addition of cells for assay.
Several types of cells were used in binding experiments to stalkokines of the invention, including transfected mouse myeloma NSO cells containing a mammalian expression vector driving expression of the receptor of interest, e.g., CCR1, CCR4, CCR6, CCR7, CCR8, CXCR4, CMV US28 (gift of R&D Systems (Minneapolis, Minn.)).
In an experiment, CCR4-NSO cells were used to test binding competition. Harvested CCR4 NSO cells were resuspended at 2×10^6 cells per ml in PBS. […] 250 ul of cells that were not pre-treated with soluble chemokine were added to additional wells. The slides were incubated for 1.5 hours at room temp, then the supernatant gently aspirated. The chamber portion of the slide was removed (using the apparatus provided by the supplier) and the slide was washed by gentle immersion into a petri dish containing PBS to a depth of 1cm. This was repeated 3 times in total, and the slide was immersed in a 1% glutaraldehyde solution (in PBS) for 5 minutes at room temperature. The cells were inspected and enumerated visually by microscopy.

CCR4 [4] = target: T2, CCR4; assay: Displacement of radiolabeled MDC or TARC tracer from CEM cells expressing CCR4; type: binding; set-up: endogenous in cells; host or cells: CEM cells; settings: supernatants with soluble stalkokine, compared with control supernatant
Method: Briefly, CEM cells we added to radiolabeled chemokine “tracer” (MDC or TARC) in the presence of competitor molecules such as supernatants expressing the soluble MDC-FRAC (a stalkokine with a fractalkine stalk and an MDC ligand domain) or TARC-FRAC (a stalkokine with a fractalkine stalk and an TARC ligand domain). The cells and tracer were incubated and harvested by filtration, capturing the bound tracer. The material was then counted. “Total” is the amount of tracer bound with no competition.

CXCR4 = target: T3, CXCR4 (Homo sapiens, UniProt P61073); assay: Binding of CXCR4-NSO cells to immobilized stalkokines
T3 construct: host or cells: mouse myeloma NSO
Method: In one set of experiments, five 8 well chamber slides (Lab-Tek II, Nalge Nunc International, Rochester, N.Y.), 250 ul of 10 ug/ml anti-his antibody (R&D Systems, Minneapolis, Minn.) in PBS was added to each well and incubated at room temperature overnight (typically 16 hours). Following, the liquid in each well was aspirated and washed once for approximately 5 minutes with 500 ul of PBS. The wells were then “blocked” (blocked for any additional protein binding sites) with the addition of 250 ul of blocking solution (2% fetal bovine serum, 0.5% BSA in PBS) and incubation for 1 hour at room temp (e.g., 20° C.). The liquid in each well was aspirated and 250 ul of supernatant containing the chemokine-stalk-immobilization domain fusion proteins (SDF1a-FRAC, finetaxin-FRAC, CCL27-FRAC, 1309-FRAC, MIP3a-FRAC, ELC-FRAC, SLC-FRAC, MDC-FRAC, TARC-FRAC, or BRAK-FRAC) or the control supernatant was added to two wells. Each slide contained two wells with control supernatant (from mock-transfected cells) and two wells with the positive control SDF1a (which binds the ubiquitous chemokine receptor CXCR4). The four other wells were for experimental samples. The supernatants were incubated for one hour at room temperature (typically 20° C.), then incubated for an additional hour at 37° C. […] The slide was then ready for addition of cells for assay. […]

CCR10 [5] = target: T1, CCR10; assay: Spectrum of ligands that bind to CCR10; type: binding
Excerpt: Furthermore ELC-SK mediated adhesion was abolished in the presence of soluble native ELC as a competitor (FIG. 3A, top row). […] Moreover, radiolabeled ELC was used in a traditional homologous competition assay in the presence of increasing concentrations of unlabeled ELC. […] Taken together, the stalkokine-based adhesion and radiolabeled ligand binding/homologous competition assays indicate that CCR10 is a new chemokine receptor that bound a novel compliment of chemokines.

T3 sequence (P61073 whole entry): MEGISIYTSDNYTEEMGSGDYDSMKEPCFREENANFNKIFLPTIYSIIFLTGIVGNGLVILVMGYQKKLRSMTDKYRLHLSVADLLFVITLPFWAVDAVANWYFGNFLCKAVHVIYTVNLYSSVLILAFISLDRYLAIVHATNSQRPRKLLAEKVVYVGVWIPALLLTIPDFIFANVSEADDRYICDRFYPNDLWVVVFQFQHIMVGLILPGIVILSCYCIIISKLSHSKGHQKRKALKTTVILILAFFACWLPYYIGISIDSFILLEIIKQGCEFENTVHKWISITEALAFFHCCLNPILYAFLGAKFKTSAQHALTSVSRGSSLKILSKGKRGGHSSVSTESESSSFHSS

Molecule	Calcium influx / calcium signaling (CCR4 [2])	Binding to Stalkokine form (CCR4 [3])	Inhibition of binding of MDC or TARC tracer to CEM cells (CCR4 [4])	Binding to Stalkokine form (CXCR4)	further results
B1	–	–	–	–	Adhesion of HEK293-CCR10 cells to immobilized stalkokine (CCR10 [1]): adhered very well; Adhesion of HEK293-CCR10 cells to immobilized stalkokine (CCR10 [1]; listed as ELC-stalkokine (SK)): strong adhesion
B2	modest influx	bound	significant further decrease	–	Calcium influx / calcium signaling (CCR4 [2]; listed as TARC-Stalkokine): induction of calcium signaling
B3	–	–	–	yes	–
B4	–	yes, yes	maximal level of competition	–	–
B5	–	–	–	yes	Affinity of binding to CCR10 (CCR10 [5]): lower affinity
B6	modest influx	bound	significant further decrease	–	Calcium influx / calcium signaling (CCR4 [2]; listed as MDC-Stalkokine): induction of calcium signaling
